Changes are numbered by the printed parent chain.
T1: MARV Angola GPe (Marburg virus, strain Angola, UniProt Q1PD50 19-648)
T1 construct: extracellular domain; also called Marburg GP (Angola) ectodomain
T1 sequence: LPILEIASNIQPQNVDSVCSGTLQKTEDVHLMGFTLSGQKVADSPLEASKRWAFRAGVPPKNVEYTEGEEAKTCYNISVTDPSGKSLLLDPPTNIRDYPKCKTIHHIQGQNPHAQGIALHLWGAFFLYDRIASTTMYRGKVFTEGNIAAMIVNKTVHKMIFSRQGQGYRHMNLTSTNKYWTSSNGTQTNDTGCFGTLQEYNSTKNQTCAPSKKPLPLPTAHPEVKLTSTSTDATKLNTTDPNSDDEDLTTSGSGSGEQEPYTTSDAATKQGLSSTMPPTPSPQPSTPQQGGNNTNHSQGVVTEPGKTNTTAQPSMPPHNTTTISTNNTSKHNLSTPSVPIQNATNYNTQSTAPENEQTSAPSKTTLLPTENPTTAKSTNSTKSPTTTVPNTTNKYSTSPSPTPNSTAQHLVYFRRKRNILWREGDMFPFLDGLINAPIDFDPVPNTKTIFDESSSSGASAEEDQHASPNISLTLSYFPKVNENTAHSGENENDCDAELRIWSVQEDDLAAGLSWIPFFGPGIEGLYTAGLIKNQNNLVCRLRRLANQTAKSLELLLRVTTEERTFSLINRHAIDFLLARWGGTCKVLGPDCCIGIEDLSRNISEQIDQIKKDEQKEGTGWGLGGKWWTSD

T2: MARV Musoke GPe (Marburg virus, strain Musoke, UniProt P35253 19-648)
T2 construct: extracellular domain; also called Marburg GP (Musoke) ectodomain
T2 sequence: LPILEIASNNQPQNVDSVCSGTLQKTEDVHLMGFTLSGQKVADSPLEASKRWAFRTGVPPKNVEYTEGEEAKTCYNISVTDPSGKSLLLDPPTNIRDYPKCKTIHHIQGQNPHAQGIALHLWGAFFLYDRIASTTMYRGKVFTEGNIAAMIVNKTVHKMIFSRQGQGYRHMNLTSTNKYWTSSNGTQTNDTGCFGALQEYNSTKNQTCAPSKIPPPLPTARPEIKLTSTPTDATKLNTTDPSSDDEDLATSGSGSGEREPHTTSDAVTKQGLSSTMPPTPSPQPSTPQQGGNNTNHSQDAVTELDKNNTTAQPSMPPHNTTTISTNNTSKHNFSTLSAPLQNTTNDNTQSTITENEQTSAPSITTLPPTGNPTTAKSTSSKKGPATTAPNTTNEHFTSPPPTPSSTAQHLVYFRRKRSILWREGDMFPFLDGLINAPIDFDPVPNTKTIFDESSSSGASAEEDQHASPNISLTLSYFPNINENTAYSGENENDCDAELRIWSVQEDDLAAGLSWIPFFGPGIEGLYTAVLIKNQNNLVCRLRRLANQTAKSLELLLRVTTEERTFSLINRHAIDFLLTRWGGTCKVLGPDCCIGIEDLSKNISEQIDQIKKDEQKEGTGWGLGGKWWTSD

T3: MARV Ravn GPe (Marburg virus, strain Ravn, UniProt Q1PDC7 19-648)
T3 construct: extracellular domain; also called Marburg GP (Ravn) ectodomain
T3 sequence: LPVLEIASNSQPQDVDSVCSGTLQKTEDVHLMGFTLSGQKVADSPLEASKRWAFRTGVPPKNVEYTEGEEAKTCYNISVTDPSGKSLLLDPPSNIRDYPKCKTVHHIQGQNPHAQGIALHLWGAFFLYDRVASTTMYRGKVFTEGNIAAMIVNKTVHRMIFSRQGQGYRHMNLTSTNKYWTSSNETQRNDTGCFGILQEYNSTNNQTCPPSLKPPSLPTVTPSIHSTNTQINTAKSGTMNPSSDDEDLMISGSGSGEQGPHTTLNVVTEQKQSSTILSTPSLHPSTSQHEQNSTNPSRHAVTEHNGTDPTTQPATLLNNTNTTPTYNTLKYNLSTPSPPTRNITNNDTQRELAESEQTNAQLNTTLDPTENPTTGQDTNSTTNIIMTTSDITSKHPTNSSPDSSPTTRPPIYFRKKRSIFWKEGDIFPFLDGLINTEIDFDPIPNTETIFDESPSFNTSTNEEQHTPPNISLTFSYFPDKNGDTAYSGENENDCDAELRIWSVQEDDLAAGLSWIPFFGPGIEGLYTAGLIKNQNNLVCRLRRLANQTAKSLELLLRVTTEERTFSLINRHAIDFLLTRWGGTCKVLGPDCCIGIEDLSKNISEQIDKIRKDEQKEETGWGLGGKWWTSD

B1: muCAN30G5 (antibody, V domains shown)
VH: EVQLVESGGGLVQPKGSLKLSCAASGFAFNSYAMHWVCQAPGKGLEWVARIRIKSGNYATSYAGSVTDRFTVSRDDSQNLFYLQMNNLKTEDTAMYYCVREWEGAMDYWGQGTSVTVSS
VL: DIVLTQSPLSLPVSLGDQASISCRSSQSLVHSNGNTYLHWYLQKPGQSPNLLIYKVSNRFSGVPDRFSGSGSGTDFTLKISRVEAEDLGVYFCSQSTHVPWTFGGGTKLEIK
notes: also called murine CAN30G5
B2: huCAN30G5 (antibody, V domains shown)
VH: B1 VH with K15G, C38R, P41S, T67K, D68G, Q78K, L80T, N87S, S114L
VL: B1 VL with S14T, D17Q, Q18P, L42Q, K44R, N50R, L88V, F92Y, L109V
notes: also called humanized CAN30G5
B3: huCAN54G2 (antibody, V domains shown)
VH: QVQLQQSGTEVKKPGASVKVSCKASGYDFTNFWLGWIRQAPGQGLEWIGDIYPGGDNTYYNEKFKGRVTLTADKSSNTAYMELSSLRSEDTAVYFCFMILYTLDYWGQGTLVTVSS
VL: DVVMTQTPLTLPVTLGQPASISCTSSQSLLNSDGETYLNWLLQRPGQSPKRLIHLVSKLDSGVPDRFSGSGSGTDFTLKISRVEAEDVGVYYCWQGTHFPWTFGGGTKVEIK
notes: also called humanized CAN54G2
B4: huCAN40G1 (antibody, V domains shown)
VH: EVQLQQSGPEVKKPGASVKVSCRTSGYTFTEYTIHWVKQAPGKGLEWIGGINPNHGGTLYNQKFKGRVTLTVDKSSSTAYMELSRLRSDDTAVYYCARFTYDYWGQGTLVTVSS
VL: DIVLTQSPASLAVSLGERATISCKASQSVDHDGDSYMNWYQQKPGQPPKLLIYATSNLESGIPARFSGSGSGTDFTLTISSLQAEDVATYYCQQSYEVPLTFGAGTKLEIK
notes: also called humanized CAN40G1
B5: muCAN40G1 (antibody, V domains shown)
VH: EVQLQQSGPELVKPGASVKISCRTSGYTFTEYTIHWVKQSRGKSLEWIGGINPNHGGTLYNQKFKVKATLTVDKSSSTAYMELRSLTSEDSAVYYCARFTYDYWGQGTTLTVSS
VL: B4 VL with E17Q, T20S, T78N, S80H, S81P, L82V, Q83E, A84E, V87A, I110L
notes: also called murine CAN40G1
B6: muCAN54G2 (antibody, V domains shown)
VH: QVQLQQSGTELVRPGTSVKISCKASGYDFTNFWLGWIKQRPGHGLEWIGDIYPGGDNTYYNEKFKGKVTLTADKSSNTAYMQFSSLTSEDSAVYFCFMILYTLDYWGQGTSVTVSS
VL: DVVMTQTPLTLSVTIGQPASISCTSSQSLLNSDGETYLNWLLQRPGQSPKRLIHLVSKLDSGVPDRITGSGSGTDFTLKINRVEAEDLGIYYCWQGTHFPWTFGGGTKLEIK
notes: also called murine CAN54G2

molecular target: T1, MARV Angola GPe; experiment: ELISA on coated GPe (200 ng/well)

Binder | binding result
B1 | no binding
B2 | no binding

molecular target: T2, MARV Musoke GPe; experiment: ELISA on coated GPe (200 ng/well)

Binder | binding result
B1 | no binding
B2 | no binding

molecular target: T1, MARV Angola GPe; experiment: ELISA, GP coated 200 ng/well, mAb at 2 ug/mL

Binder | OD405 @ 30 min [OD405]
B3 | 0.502
B4 | 3.83
B5 | 0.857
B6 | 0.15

molecular target: T3, MARV Ravn GPe; experiment: ELISA, GP coated 200 ng/well, mAb at 2 ug/mL

Binder | OD405 @ 30 min [OD405]
B3 | 0.89
B4 | 2.75
B5 | 0.504
B1 | 0.16
B2 | 2.74
B6 | 0.16

molecular target: T2, MARV Musoke GPe; experiment: ELISA, GP coated 200 ng/well, mAb at 2 ug/mL

Binder | OD405 @ 30 min [OD405]
B3 | 0.908
B4 | 2.73
B5 | 0.536
B6 | 0.185

— US20180030118A1 (EMERGENT BIOSOLUTIONS CANADA, published 2018)
